T1: human ILDR2 (Immunoglobulin Like Domain Containing Receptor 2) (human, UniProt Q71H61 21-639)
T1 sequence (looked up): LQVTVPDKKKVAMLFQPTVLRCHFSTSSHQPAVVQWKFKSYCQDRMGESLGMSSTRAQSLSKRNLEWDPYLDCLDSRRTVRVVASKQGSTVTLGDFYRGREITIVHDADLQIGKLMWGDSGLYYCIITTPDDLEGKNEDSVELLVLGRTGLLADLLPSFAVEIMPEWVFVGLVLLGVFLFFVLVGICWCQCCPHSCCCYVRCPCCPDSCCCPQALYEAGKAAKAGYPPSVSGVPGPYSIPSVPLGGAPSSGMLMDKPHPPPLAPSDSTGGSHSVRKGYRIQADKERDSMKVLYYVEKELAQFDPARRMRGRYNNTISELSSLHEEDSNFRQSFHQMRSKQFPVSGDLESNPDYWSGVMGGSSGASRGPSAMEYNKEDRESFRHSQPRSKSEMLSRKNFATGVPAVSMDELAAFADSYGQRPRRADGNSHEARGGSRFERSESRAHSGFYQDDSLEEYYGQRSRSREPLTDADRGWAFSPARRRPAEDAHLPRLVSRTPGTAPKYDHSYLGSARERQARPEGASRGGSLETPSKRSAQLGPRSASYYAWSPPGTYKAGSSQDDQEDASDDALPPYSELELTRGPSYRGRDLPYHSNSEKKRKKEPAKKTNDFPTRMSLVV

B1: 56-02.E08 (antibody, V domains shown)
VH: EVQLVQSGAEVKKPGESLKISCKASGYSFTTYWIGWVRQVPGKGLEWMGIIYPGDYDTRYSPSFQGQVTISADKSINTAYLQWSSLEASDSAMYYCAIGEPFDYWGQGTLVTVSS
VL: not shown
notes: Full length IgG; The KD assay says 'hIgG1s'
B2: 59-08.B02 (antibody, V domains shown)
VH: QVQLVQSGAEVKKPGSSVKVSCKASGGTFSSYAISWVRQAPGQGLEWMGGIIPILGIANYAQKFQGRVTITADKSTSTAYMELSSLRSEDTAVYYCARGRLPYGDFWDSWGQGTLVTVSS
VL: not shown
notes: also called BAY1905254; aILDR2
B3: 56.02.E10 (antibody, V domains shown)
VH: QVQLVESGGGLVKPGGSLRLSCAASGFTFSNYGMHWVRQAPGKGPEWLAFIRYDGSKKYYADSVRGRFTISRDNSKNMLYLQMNSLRTEDTAVYYCAKEGIAAPGSGYYYGMDVWGQGTTVTVSS
VL: QSALTQPASVSGSPGQSITISCSGTTTDVGRYTLVSWYQHHPGKAPKLIIFEVNKRPSGVSSRFSGSKSGNTASLTISGLQTEDEADYFCCSYTGTTVIFGGGTQLTVL
B4: 74.15.G09 (antibody, V domains shown)
VH: EVQLVESGGGVVQPGRSLRLSCAASGFTFSSYGMHWVRQAPGKGLEWVAVISYDGSNKYYADSVKGRFTISRDNSKNTLYLQMNSLRAEDTAVYYCAKESPSVGLGSYYDFWSGLYGMDVWGQGTTVTVSS
VL: EIVLTQSPGTLSLSPGERVTLSCRTGQRVENLFIAWYQQKPGQAPRLLLYGASNRATGIPDRFSGSGSGTDFTLTISRLEPEDSAVYYCQQYDDSGITFGQGTRLEIK
notes: as for B1
B5: 61-02.C05 (antibody, V domains shown)
VH: EVQLVESGGGVVQPGGSLRLSCAASGFTFSSYAMSWVRQAPGKGLEWVSGISSSGGSTQYADSVKGRFTVSRDNSKNTLYLQMKSLRAEDTALYYCAKDFVGVLPDAFDIWGQGTMVTVSS
VL: DIQLTQSPSSLSASVGDRVTITCQASQDTNKYLNWYQQKPGKAPELLIYGASTLESGVPPRFSASGSGTDFTLTINSLQPEDIGRYYCQQYHIPPPSFGGGTKLEIK
notes: Full length IgG; The KD assay says 'hIgG1s'; also called 61-02.005

target: T1, human ILDR2 (Immunoglobulin Like Domain …); test: cell-based or functional assay

Binder | IL2 concentration (% over isotype control), mixed lymphocyte reaction
B1 | 74 % over isotype control
B2 | 91 % over isotype control
B3 | 223 % over isotype control
B4 | 86 % over isotype control
B5 | 82 % over isotype control

target: T1, human ILDR2 (Immunoglobulin Like Domain …); test: flow cytometry titration of hIgG1 on HEK cells stably transfected with human ILDR2; 1:1 equilibrium fit of MFI
Protocol: KD values were determined by flowcytometric quantitation of binding to HEK cells stably transfected with human ILDR2 and use of an algorithm designed to extrapolate affinities based on the binding curve. Briefly, hIgG1 s were added at a binding site concentration range of 3 pM-209 nM to a constant number of cells (100,000 cells/well) over 16 wells in a 96-well plate. One well contained cells without any added IgG to serve as a blank well. The cells were equilibrated for 4 hours at 4° C. An excess of Cy5-labeled goat anti-human polyclonal antibody (Jackson ImmunoResearch 109-606-097) at 90nM was added to each well after one FACS buffer wash of the cells. Cells were washed twice after a 30 minute incubation (at 4° C.) with the labeling pAb and then the Mean Fluorescence Intensity (MFI) was recorded over approximately 10,000 “events” using an Intellicyte flow cytometer. The […] of the IgGs binding to HEK 293 cells expressing ILDR2 were estimated by fitting the MFI vs. the IgG binding site concentration curve using a 1:1 equilibrium model as detailed in Drake and Klakamp (2007).

Binder | Kd
B1 | 2.7 nM
B2 | 2 nM
B4 | 12.4 nM
B5 | 10.7 nM

Reference: patent US20200369769A1 (Bayer, published 2020)
